Source: patent publication US20220162261A1 (published 2022)
Bridge positions count the residues as written; N and C are the ends. Square brackets hold non-standard residues; d marks the D form. Phe(4-tBu) = CC(C)(C)c1ccc(C[C@H](N)C(=O)O)cc1; 2Nal = N[C@@H](Cc1ccc2ccccc2c1)C(=O)O; NMeR = CN[C@@H](CCCNC(=N)N)C(=O)O; β3hE = N[C@@H](CCC(=O)O)CC(=O)O; NMeK = CN[C@@H](CCCCN)C(=O)O; Pen = CC(C)(S)[C@H](N)C(=O)O; dNMeK = CN[C@H](CCCCN)C(=O)O

B1: SEQ ID NO: 68 (peptide)
peptide: Ac-[Pen][NMeR]SDTL[Pen]W[dE][dK]-NH2
modifications: disulfide 1-7; not fully specified (residue 10); printed as (Ac Pen N-Me-R S D T L Pen W e k NH2)2 DIG, disulfide Pen-Pen; also: homodimer via DIG linker
B2: SEQ ID NO: 78 (peptide)
peptide: Ac-[Pen][NMeR]SDTL[Pen]WE[dK]-OH
modifications: disulfide 1-7; not fully specified (residue 10); printed as (Ac Pen N-Me-R S D T L Pen W E k OH)2 DIG, disulfide Pen-Pen; also: homodimer: two subunits linked by DIG via D-Lys10 side chain
B3: SEQ ID NO: 152 (peptide)
peptide: Ac-[Pen][NMeR]SDTL[Pen][Phe(4-tBu)][β3hE]-OH
modifications: disulfide 1-7
SMILES: CC(=O)N[C@@H]1C(=O)N(C)[C@@H](CCCNC(=N)N)C(=O)N[C@@H](CO)C(=O)N[C@@H](CC(=O)O)C(=O)N[C@@H]([C@@H](C)O)C(=O)N[C@@H](CC(C)C)C(=O)N[C@H](C(=O)N[C@@H](Cc2ccc(C(C)(C)C)cc2)C(=O)N[C@@H](CCC(=O)O)CC(=O)O)C(C)(C)SSC1(C)C
B4: SEQ ID NO: 67 (peptide)
peptide: Ac-[Pen][NMeR]SDTL[Pen]WE[dK]-NH2
modifications: disulfide 1-7; not fully specified (residue 10); printed as (Ac Pen N-Me-R S D T L Pen W E k NH2)2 DIG, disulfide Pen-Pen; also: homodimer via DIG linker
notes: also called Peptide Z
B5: SEQ ID NO: 149 (peptide)
peptide: Ac-[Pen][NMeR]SDTL[Pen][Phe(4-tBu)][β3hE][NMeK]-NH2
modifications: disulfide 1-7; not fully specified (residue 10); printed as (Ac Pen N-Me-R S D T L Pen F(4-tBu) b-H-E N-Me-K NH2)2 DIG, disulfide Pen-Pen; also: homodimer (…)2 DIG via Lys10 NZ
B6: SEQ ID NO: 211 (peptide)
peptide: Ac-[Pen][NMeR]SDTL[Pen]W[dE][dK]-NH2
modifications: disulfide 1-7; also: dimer, two subunits joined by DIG linker
notes: also called peptide 211
B7: SEQ ID NO: 215 (peptide)
peptide: Ac-[Pen][NMeR]SDTL[Pen]WE[NMeK]-NH2
modifications: disulfide 1-7; not fully specified; printed as [Ac-Pen-(N-Me-Arg)-Ser-Asp-Thr-Leu-Pen-Trp-Glu-(N-Me-Lys)-NH2]2-DIG; also: homodimer: two identical subunits joined by DIG linker at the Lys10 side chains, each subunit has its own Pen1-Pen7 disulfide
notes: also called peptide 215
B8: SEQ ID NO: 216 (peptide)
peptide: Ac-[Pen][NMeR]SDTL[Pen]W[dE][dK]-OH
modifications: disulfide 1-7; not fully specified (residue 10); printed as (Ac Pen N-Me-R S D T L Pen W e k OH)2 DIG, disulfide Pen-Pen; also: dimer, two subunits joined by DIG linker
notes: also called peptide 216
B9: SEQ ID NO: 214 (peptide)
peptide: Ac-[Pen][NMeR]SDTL[Pen]WE[dNMeK]-NH2
modifications: disulfide 1-7; not fully specified (residue 10); printed as (Ac Pen N-Me-R S D T L Pen W E N-Me-k NH2)2 DIG, disulfide Pen-Pen; also: dimer, two subunits joined by DIG linker
notes: also called peptide 214
B10: SEQ ID NO: 204 (peptide)
peptide: Ac-C[NMeR]SDTL[Pen]W[dK]-NH2
modifications: disulfide 1-7; also: homodimer via DIG linker on D-Lys9 side chains
notes: also called peptide 204
B11: SEQ ID NO: 217 (peptide)
peptide: Ac-[Pen][NMeR]SDTL[Pen]WE[dK]-NH2
modifications: disulfide 1-7; not fully specified (residue 10); printed as (Ac Pen N-Me-R S D T L Pen W E k NH2)2 DIG, disulfide Pen-Pen; also: dimer, two subunits joined by DIG linker
notes: also called peptide 217
B12: SEQ ID NO: 213 (peptide)
peptide: Ac-[Pen][NMeR]SDTL[Pen]W[β3hE][dK]-NH2
modifications: disulfide 1-7; not fully specified (residue 10); printed as (Ac Pen N-Me-R S D T L Pen W b-h-E k NH2)2 DIG, disulfide Pen-Pen; also: dimer, two subunits joined by DIG linker
notes: also called peptide 213; Peptide XX
B13: SEQ ID NO: 209 (peptide)
peptide: XRSDTLXWK
modifications: (Ac Pen N-Me-R S D T L Pen W k NH2)2 DIG; disulfide Pen-Pen
notes: also called peptide 209
B14: SEQ ID NO: 218 (peptide)
peptide: Ac-[Pen][NMeR]SDTL[Pen][Phe(4-tBu)][β3hE][dK]-NH2
modifications: disulfide 1-7; not fully specified (residue 10); printed as (Ac Pen N-Me-R S D T L Pen F(4-tBu) b-H-E k NH2)2 DIG, disulfide Pen-Pen; also: dimer, two subunits joined by DIG linker
notes: also called peptide 218
B15: SEQ ID NO: 203 (peptide)
peptide: Ac-C[NMeR]SDTL[Pen][dK]-NH2
modifications: disulfide 1-7; also: homodimer via IDA linker on D-Lys8 side chains
notes: also called peptide 203
B16: SEQ ID NO: 33 (peptide)
peptide: Ac-[Pen][NMeR]SDTL[Pen][2Nal][dE][dK]-NH2
modifications: disulfide 1-7; also: dimer (…)2 DIG, attachment not given here
B17: Peptide Z-biotin (peptide)
peptide: Ac-[Pen][NMeR]SDTL[Pen]WE[dK]-NH2
modifications: disulfide 1-7; not fully specified (residue 10); printed as (Ac-Pen-(N-Me-Arg)-S-D-T-L-Pen-W-E-k-NH2)2-DIG; also: homodimer: two subunits joined by DIG linker, biotin label, attachment not given here

The binders below were run against T1, mouse α4β7 integrin on TK1 cells (mouse, UniProt Q00651 41-1039; P26011 20-806) (assay: TK1 cell adhesion to MAdCAM-1).
T1 construct: whole, on cells; also called α4β7 cell (Mu); Cell Adhesion α4β7 Mouse
T1 sequence (Q00651 41-1039, chain 1 of 2): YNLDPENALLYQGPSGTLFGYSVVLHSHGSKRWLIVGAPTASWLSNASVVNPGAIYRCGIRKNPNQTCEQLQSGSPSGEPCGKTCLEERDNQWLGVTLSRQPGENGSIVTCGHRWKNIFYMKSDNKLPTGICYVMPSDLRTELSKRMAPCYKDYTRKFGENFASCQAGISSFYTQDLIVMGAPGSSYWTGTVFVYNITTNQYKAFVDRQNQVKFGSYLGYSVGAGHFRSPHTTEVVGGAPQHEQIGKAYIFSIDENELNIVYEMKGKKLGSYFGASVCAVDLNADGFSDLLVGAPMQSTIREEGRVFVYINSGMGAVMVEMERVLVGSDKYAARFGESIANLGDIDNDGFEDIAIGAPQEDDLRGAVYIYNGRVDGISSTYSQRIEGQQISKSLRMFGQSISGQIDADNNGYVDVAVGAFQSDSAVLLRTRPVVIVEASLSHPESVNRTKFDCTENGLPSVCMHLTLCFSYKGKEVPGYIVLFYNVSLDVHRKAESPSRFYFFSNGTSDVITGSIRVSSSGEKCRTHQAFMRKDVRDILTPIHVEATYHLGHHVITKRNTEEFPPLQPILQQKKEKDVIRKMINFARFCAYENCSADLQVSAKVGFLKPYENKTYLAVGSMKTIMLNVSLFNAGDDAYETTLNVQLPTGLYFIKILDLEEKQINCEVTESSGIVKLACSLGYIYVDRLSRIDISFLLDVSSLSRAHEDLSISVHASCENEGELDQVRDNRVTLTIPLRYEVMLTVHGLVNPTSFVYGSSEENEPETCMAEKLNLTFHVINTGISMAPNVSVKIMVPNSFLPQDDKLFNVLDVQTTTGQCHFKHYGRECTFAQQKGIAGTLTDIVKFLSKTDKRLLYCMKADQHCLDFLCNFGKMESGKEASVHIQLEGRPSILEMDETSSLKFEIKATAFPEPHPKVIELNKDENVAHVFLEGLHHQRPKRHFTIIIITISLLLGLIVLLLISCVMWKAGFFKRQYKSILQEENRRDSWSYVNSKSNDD
T1 sequence (P26011 20-806, chain 2 of 2): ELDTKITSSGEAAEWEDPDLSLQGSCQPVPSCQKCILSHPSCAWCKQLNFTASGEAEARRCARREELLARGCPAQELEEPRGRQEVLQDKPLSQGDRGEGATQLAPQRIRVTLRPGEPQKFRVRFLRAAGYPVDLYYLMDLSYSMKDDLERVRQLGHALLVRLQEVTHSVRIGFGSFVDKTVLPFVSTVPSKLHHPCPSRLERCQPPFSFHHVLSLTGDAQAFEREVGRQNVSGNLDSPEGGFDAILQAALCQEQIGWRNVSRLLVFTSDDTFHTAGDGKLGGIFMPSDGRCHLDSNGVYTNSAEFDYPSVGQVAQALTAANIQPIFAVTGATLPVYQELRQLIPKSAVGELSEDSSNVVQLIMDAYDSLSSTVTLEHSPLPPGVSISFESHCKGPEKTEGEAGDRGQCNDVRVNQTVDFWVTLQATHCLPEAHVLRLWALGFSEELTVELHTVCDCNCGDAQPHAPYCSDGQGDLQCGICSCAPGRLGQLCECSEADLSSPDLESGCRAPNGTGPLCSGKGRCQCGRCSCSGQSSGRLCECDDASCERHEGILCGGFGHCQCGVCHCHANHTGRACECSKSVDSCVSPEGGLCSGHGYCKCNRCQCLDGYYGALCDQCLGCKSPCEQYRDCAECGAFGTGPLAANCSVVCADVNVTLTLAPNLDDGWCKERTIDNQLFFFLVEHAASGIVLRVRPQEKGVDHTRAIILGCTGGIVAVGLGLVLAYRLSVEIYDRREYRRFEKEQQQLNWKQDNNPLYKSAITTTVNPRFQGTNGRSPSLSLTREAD

IC50 [nM]	Binder
≤ 10	B1
≤ 10	B2
≤ 10	B3
≤ 10	B4
≤ 10	B5

What follows are binders tested against T2, human α4β7 integrin on cells (human, UniProt P13612 34-1032; P26010 20-798) (assay: RPMI8866 cell adhesion to MAdCAM-1).
T2 construct: whole, on cells; also called α4β7 cell (Hu); RPMI8866 cells

IC50 [nM]	Binder
22	B6
3	B7
4.2	B8
2.5	B9
22	B10
3.2	B11
12	B12
24	B13
0.78	B14
200	B15

The binders below were run against T3, rh integrin α4β7 (R&D Systems #5397-A30) (human, UniProt P13612 34-970; P26010 20-723) (assay: competition ELISA vs MAdCAM-1).
T3 construct: bought; coated on a nickel coated plate; also called immobilized α4β7; immobilized α4β7 integrin protein

IC50 [nM]	Binder
≤ 10	B1
≤ 10	B2
≤ 10	B3
≤ 10	B4
≤ 10	B5

The binders below were run against T4, α4β1 (R&D Systems #5668-A4) (UniProt P13612 34-970; P05556 21-728, limits assumed) (assay: competition ELISA vs VCAM-1).
T4 construct: bought; also called soluble α4β1

IC50 [nM]	Binder
302	B6
270	B7
247	B8
436	B9
463	B10
315	B11
539	B12
368	B13
490	B14
700	B15

Target: T2, human α4β7 integrin on cells
Experiment: RPMI8866 cell adhesion to MAdCAM-1
Remark: another data set of the same source

IC50 [nM]	Binder
> 25	B1
≤ 10	B2
≤ 10	B3
≤ 10	B4
≤ 10	B5

Target: T4, α4β1 (R&D Systems #5668-A4)
Experiment: competition ELISA vs VCAM-1
Remark: another data set of the same source

IC50 [nM]	Binder
> 500	B1
> 100	B2
> 100	B3
> 100	B4
> 500	B5

Each binder was assayed against T5, human α4β1 integrin on cells (human, UniProt P13612 34-1032; P05556 21-798) (assay: Jurkat cell adhesion to VCAM-1).
T5 construct: whole, on cells; also called α4β1 cell; Jurkat cells

IC50 [nM]	Binder
> 100000	B6
> 100000	B8
> 100000	B10
> 100000	B11
> 100000	B12
> 100000	B13
> 100000	B14
> 100000	B15

Target: T1, mouse α4β7 integrin on TK1 cells
Experiment: TK1 cell adhesion to MAdCAM-1
Remark: another data set of the same source

IC50 [nM]	Binder
7.3	B6
0.9	B7
1	B8
1.1	B9
1.2	B11
4.2	B12
51	B13
0.5	B14
633	B15

The binders below were run against T2, human α4β7 integrin on cells (assay: PBMC memory T cell adhesion).

IC50 [nM]	Binder
16.5	B7
14.5	B8
24.5	B9
1280	B10
260	B13
2	B14

Target: T2, human α4β7 integrin on cells
Experiment: PBMC memory T cell adhesion
Remark: another data set of the same source

IC50 [nM]	Binder
> 100	B1
> 25	B3
≤ 10	B5

Each binder was assayed against human α4β1 integrin on cells (human) (UniProt P13612) (assay: Jurkat cell adhesion to VCAM-1).

IC50 [nM]	Binder
> 100000	B16

Target: T5, human α4β1 integrin on cells
Experiment: Jurkat cell adhesion to VCAM-1
Remark: another data set of the same source

IC50 [nM]	Binder
> 100000	B1
> 100000	B2
> 100000	B4

Target: T3, rh integrin α4β7 (R&D Systems #5397-A30)
Experiment: competition ELISA vs MAdCAM-1
Remark: another data set of the same source

IC50 [nM]	Binder
3	B6
2.2	B7
2.8	B8
4.1	B9
2	B10
2.3	B11
4.7	B12
2.3	B13
2.8	B14
7.5	B15

These binders were tested against T6, soluble α4β7 integrin (UniProt P13612 34-970; P26010 20-723, limits assumed) (assay: SPR, binder on streptavidin chip, soluble α4β7).
T6 construct: analyte of the SPR experiment

Half-life for dissociation [h]	Kd [nM]	koff [s⁻¹]	Binder
3.53	52.1	5.46e-05	B17
